Laboratory results from paper PMC5875430 (Leukemia, 2013).

Experiments:
[1] = target: T1, class I granulocyte colony-stimulating factor receptor (canonical, full-length isoform) (human, UniProt Q99062 25-836); assay: radioligand binding
T1 sequence (looked up): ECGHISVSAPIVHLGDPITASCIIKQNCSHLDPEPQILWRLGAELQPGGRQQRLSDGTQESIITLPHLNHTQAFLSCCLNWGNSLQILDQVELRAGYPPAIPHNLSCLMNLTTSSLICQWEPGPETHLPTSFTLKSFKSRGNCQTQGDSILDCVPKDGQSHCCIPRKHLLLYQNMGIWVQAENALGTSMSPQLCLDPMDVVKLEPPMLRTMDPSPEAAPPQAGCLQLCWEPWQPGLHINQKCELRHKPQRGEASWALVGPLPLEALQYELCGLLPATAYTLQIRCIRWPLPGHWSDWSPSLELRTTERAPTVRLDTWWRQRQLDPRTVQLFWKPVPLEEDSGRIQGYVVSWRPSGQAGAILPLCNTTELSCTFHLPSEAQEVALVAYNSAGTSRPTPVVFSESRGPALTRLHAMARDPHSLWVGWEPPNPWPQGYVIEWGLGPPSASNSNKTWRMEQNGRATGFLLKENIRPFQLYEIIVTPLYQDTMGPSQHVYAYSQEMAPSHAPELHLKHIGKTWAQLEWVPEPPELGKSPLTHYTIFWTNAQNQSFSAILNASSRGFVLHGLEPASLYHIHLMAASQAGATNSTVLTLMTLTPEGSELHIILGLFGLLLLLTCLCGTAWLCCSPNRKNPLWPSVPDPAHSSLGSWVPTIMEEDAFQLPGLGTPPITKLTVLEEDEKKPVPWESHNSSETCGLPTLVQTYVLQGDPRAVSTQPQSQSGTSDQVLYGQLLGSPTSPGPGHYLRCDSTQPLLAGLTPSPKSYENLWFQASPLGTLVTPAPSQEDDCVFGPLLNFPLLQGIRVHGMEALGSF

[2] = target: T2, class IV granulocyte colony-stimulating factor receptor (alternatively spliced, truncated isoform) (human, UniProt Q99062-4 25-783); assay: radioligand binding
T2 sequence (looked up): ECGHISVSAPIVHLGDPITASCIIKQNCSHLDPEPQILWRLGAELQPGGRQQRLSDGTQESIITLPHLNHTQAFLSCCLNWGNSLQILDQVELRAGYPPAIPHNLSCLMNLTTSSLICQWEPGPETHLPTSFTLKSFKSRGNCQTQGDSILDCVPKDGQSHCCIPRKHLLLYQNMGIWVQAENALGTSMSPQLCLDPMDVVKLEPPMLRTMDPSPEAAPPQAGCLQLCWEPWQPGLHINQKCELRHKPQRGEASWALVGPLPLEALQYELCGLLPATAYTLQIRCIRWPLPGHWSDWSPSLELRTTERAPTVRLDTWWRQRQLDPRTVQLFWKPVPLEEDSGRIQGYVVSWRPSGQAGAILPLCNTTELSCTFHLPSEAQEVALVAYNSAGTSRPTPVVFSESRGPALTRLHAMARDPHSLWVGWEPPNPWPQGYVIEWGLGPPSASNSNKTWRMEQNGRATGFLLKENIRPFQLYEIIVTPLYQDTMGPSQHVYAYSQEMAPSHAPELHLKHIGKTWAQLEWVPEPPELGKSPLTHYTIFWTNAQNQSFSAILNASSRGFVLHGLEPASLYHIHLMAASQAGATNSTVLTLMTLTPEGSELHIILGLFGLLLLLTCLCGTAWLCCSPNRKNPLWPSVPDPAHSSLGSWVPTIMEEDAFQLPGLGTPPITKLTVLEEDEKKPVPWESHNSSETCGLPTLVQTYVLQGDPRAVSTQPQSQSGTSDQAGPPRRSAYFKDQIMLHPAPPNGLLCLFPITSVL

- Kd [1]: 0.58 nM
- Kd [2]: 0.53 nM
B1: human granulocyte colony-stimulating factor (ligand, UniProt P09919 31-207, looked up)
chain: TPLGPASSLPQSFLLKCLEQVRKIQGDGAALQEKLVSECATYKLCHPEELVLLGHSLGIPWAPLSSCPSQALQLAGCLSQLHSGLFLYQGLLQALEGISPELGPTLDTLQLDVADFATTIWQQMEELGMAPALQPTQGAMPAFASAFQRRAGGVLVASHLQSFLEVSYRVLRHLAQP
modifications: 125I Bolton-Hunter reagent label (site not stated)
